Measured values taken from patent publication US20180291096A1 (Janssen / Centocor, published 2018).
Numbering of substitutions follows the chain as printed.

T1: recombinant human IL-23 (hrIL-23), produced at Centocor (human, UniProt P29460 23-328)
T1 construct: p19-p40 heterodimer; also called rhIL-23; huIL-23
T1 sequence 1: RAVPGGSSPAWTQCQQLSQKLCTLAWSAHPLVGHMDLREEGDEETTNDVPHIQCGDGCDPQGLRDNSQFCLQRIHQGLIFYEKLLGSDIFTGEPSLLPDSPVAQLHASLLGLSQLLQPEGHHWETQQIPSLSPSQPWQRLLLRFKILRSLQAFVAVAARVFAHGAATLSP
T1 sequence 2: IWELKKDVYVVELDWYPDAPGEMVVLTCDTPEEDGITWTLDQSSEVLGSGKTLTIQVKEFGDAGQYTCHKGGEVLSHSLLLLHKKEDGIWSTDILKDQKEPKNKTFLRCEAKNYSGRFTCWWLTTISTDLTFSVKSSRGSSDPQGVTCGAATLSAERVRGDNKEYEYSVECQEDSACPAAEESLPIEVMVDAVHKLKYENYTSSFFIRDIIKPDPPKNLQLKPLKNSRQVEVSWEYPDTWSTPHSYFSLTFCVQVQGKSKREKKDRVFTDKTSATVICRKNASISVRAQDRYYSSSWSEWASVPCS

B1: MOR04205 Fab (Fab, V domains shown)
VH: QVQLVQSGAEVKKPGESLKISCKGSGYSFTNYWISWVRQAPGKGLEWMGWIRPGDSDTRYSPSFEGQVTISADKSISTAYLQWSSLKASDTAMYYCARHYYGMDYWGQGTLVTVSS
VL: DIVLTQPPSVSGAPGQRVTISCSGSSSNIGSYYVNWYQQLPGTAPKLLIYGNTHRPSGVPDRFSGSKSGTSASLAITGLQSEDEADYYCQTYASLGPGEVFGGGTKLTVL
notes: Fab
B2: MOR05033 mAb (antibody, human IgG1, V domains shown)
VH: QVELVQSGAEVKKPGSSVKVSCKASGGTFSSNYISWVRQAPGQGLEWMGIIIPPIGNAWYAQKFQGRVTITADESTSTAYMELSSLRSEDTAVYYCARSKKGMYGGWTYPLMMFDLWGQGTLVTVSS
VL: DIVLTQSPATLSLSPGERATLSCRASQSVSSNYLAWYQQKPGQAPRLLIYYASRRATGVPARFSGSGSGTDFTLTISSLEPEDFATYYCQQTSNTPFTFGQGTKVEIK
B3: MOR05061 mAb (antibody, human IgG1, V domains shown)
VH: QVELVESGGGLVQPGGSLRLSCAASGFTFSSFGMSWVRQAPGKGLEWVSNISSSGSSTYYADSVKGRFTISRDNSKNTLYLQMNSLRAEDTAVYYCARYWGTPYLMQFDNWGQGTLVTVSS
VL: DIALTQPASVSGSPGQSITISCTGTSSDVGGYNSVSWYQQHPGKAPKLMIYSVSSRPSGVSNRFSGSKSGNTASLTISGLQAEDEADYYCSSYYFYLQRIVFGGGTKLTVL
B4: MOR05037 mAb (antibody, human IgG1, V domains shown)
VH: B2 VH with I50L, I52D, P54M, I55F, N57G, W59Y
VL: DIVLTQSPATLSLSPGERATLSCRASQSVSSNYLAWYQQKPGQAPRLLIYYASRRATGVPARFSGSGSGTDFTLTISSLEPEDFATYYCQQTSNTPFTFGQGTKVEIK
B5: MOR04658 mAb (antibody, human IgG1, V domains shown)
VH: B3 VH
VL: B3 VL with Y94D, F95T, Y96N, L97K, Q98P, R99L, I100V
B6: MOR05041 Fab (Fab, V domains shown)
VH: QVQLVQSGAEVKKPGESLKISCKGSGYSFSNYWIGWVRQMPGKGLEWMGIISPTGSVTWYSPSFQGQVTISADKSISTAYLQWSSLKASDTAMYYCARWYYKPFDVWGQGTLVTVSS
VL: DIVLTQPPSVSGAPGQRVTISCTGSSSNIGSGYDVHWYQQLPGTAPKLLIYGNSKRPSGVPDRFSGSKSGTSASLAITGLQSEDEADYYCSSWTPSSVVFGGGTKLTVL
notes: Fab
B7: MOR05043 Fab (Fab, V domains shown)
VH: B6 VH with I50F, T54D, V57H
VL: B6 VL
notes: Fab
B8: MOR05044 Fab (Fab, V domains shown)
VH: B6 VH with T54S, V57T
VL: B6 VL
notes: Fab
B9: MOR05046 Fab (Fab, V domains shown)
VH: B6 VH with S52D, T54V, G55S, V57W, W59K
VL: B6 VL
notes: Fab
B10: MOR05034 Fab (Fab, V domains shown)
VH: B2 VH with E3Q, I50L, I52D, P54N, I55F, N57G, W59Y
VL: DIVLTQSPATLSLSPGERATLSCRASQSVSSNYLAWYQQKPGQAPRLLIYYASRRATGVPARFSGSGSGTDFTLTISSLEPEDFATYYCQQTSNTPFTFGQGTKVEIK
notes: Fab
B11: MOR05036 Fab (Fab, V domains shown)
VH: B2 VH with E3Q, I50L, I52D, P54V, I55F, N57G, W59Y
VL: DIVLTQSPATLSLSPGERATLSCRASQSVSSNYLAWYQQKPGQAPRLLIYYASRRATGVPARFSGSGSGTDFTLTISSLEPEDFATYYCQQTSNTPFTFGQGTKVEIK
notes: Fab
B12: MOR05267 Fab (Fab, V domains shown)
VH: QVQLVQSGAEVKKPGSSVKVSCKASGGTFSNYAISWVRQAPGQGLEWMGGIIPMFGYANYAQKFQGRVTITADESTSTAYMELSSLRSEDTAVYYCARDIYAGMDVWGQGTLVTVSS
VL: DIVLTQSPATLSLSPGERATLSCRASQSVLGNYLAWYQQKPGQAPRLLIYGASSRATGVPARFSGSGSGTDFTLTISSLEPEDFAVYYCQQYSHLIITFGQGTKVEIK
notes: Fab
B13: MOR05268 Fab (Fab, V domains shown)
VH: B12 VH
VL: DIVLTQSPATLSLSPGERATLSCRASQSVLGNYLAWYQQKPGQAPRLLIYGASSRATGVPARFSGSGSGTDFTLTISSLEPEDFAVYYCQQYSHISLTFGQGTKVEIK
notes: Fab
B14: MOR05269 Fab (Fab, V domains shown)
VH: B12 VH
VL: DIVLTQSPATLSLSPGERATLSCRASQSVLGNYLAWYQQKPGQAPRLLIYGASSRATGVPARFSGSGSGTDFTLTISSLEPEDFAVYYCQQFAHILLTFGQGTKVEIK
notes: Fab
B15: MOR05059 Fab (Fab, V domains shown)
VH: B6 VH with S52D, T54S, G55N, V57Y, W59N
VL: DIVLTQPPSVSGAPGQRVTISCTGSSSNIGSGYDVHWYQQLPGTAPKLLIYGNSKRPSGVPDRFSGSKSGTSASLAITGLQSEDEADYYCASWTDGLSLVVFGGGTKLTVL
notes: Fab
B16: MOR05058 Fab (Fab, V domains shown)
VH: B6 VH with S52D, T54S, G55N, V57Y, W59N
VL: B15 VL with A91S, G96T, L97P, S98N, L99M, V100I
notes: Fab
B17: MOR05053 Fab (Fab, V domains shown)
VH: QVQLVESGGGLVQPGGSLRLSCAASGFTFSSFGMSWVRQAPGKGLEWVSNIEHKYTSYTTYYAASVKGRFTISRDNSKNTLYLQMNSLRAEDTAVYYCARYWGTPYLMQFDNWGQGTLVTVSS
VL: B3 VL with Y94D, F95T, Y96N, L97K, Q98P, R99L, I100V
notes: Fab
B18: MOR05039 Fab (Fab, V domains shown)
VH: B17 VH with T56L, S57N, T59A
VL: B3 VL with Y94D, F95T, Y96N, L97K, Q98P, R99L, I100V
notes: Fab
B19: MOR05047 Fab (Fab, V domains shown)
VH: B17 VH with T56L, S57G, T59A, Y61S
VL: B3 VL with Y94D, F95T, Y96N, L97K, Q98P, R99L, I100V
notes: Fab
B20: MOR05048 Fab (Fab, V domains shown)
VH: B17 VH with Y55F, T56M, S57G, S65G
VL: B3 VL with Y94D, F95T, Y96N, L97K, Q98P, R99L, I100V
notes: Fab
B21: MOR05050 Fab (Fab, V domains shown)
VH: B17 VH with N50S, S57G, S65P
VL: B3 VL with Y94D, F95T, Y96N, L97K, Q98P, R99L, I100V
notes: Fab
B22: MOR05052 Fab (Fab, V domains shown)
VH: B17 VH with N50S, T56L, Y61F
VL: B3 VL with Y94D, F95T, Y96N, L97K, Q98P, R99L, I100V
notes: Fab
B23: MOR05055 Fab (Fab, V domains shown)
VH: B17 VH with T56L, S57G, T59A, Y61V
VL: B3 VL with Y94D, F95T, Y96N, L97K, Q98P, R99L, I100V
notes: Fab
B24: MOR05056 Fab (Fab, V domains shown)
VH: B17 VH with N50S, T56L, T59A, S65G
VL: B3 VL with Y94D, F95T, Y96N, L97K, Q98P, R99L, I100V
notes: Fab
B25: MOR05060 Fab (Fab, V domains shown)
VH: B3 VH with E3Q
VL: B3 VL with S91G, Y94D, F95V, L97G, Q98R, R99F, I100Y
notes: Fab
B26: MOR05061 Fab (Fab, V domains shown)
VH: B3 VH with E3Q
VL: B3 VL
notes: Fab
B27: MOR05062 Fab (Fab, V domains shown)
VH: B3 VH with E3Q
VL: B3 VL with S91Q, S92T, Y96S, L97Y, Q98S, R99G, I100P
notes: Fab
B28: MOR05063 Fab (Fab, V domains shown)
VH: B3 VH with E3Q
VL: B3 VL with S91G, Y93W, Y94D, F95P, Y96I, L97F, Q98S, R99Y, I100E
notes: Fab

Biological target: T1, recombinant human IL-23 (hrIL-23), …
Assay: hrIL-23/hIL-23R competition assay

Q: For B1, which IC50 is on record?
A: 38 nM

Biological target: T1, recombinant human IL-23 (hrIL-23), …
Assay: cell-based or functional assay

Q: How did the “IC50, inhibition of IL-17 production” value turn out when B2 was run?
A: 0.283 µg/mL

Q: For B3, which “IC50, inhibition of IL-17 production” value is on record?
A: 0.309 µg/mL

Q: With B4 as the binder, how does the “IC50, inhibition of IL-17 production” value read?
A: 0.336 µg/mL

Q: With B5 as the binder, how does the “IC50, inhibition of IL-17 production” value read?
A: 1.96 µg/mL

Biological target: T1, recombinant human IL-23 (hrIL-23), …
Assay: SET

Q: For B6, which Kd is on record?
A: 0.041 nM

Q: For B7, which Kd is on record?
A: 0.018 nM

Q: B8 was tested. Which Kd did it give?
A: 0.043 nM

Q: With B9 as the binder, how does the Kd read?
A: 0.023 nM

Q: Which Kd does the source give for B10 here?
A: 0.126 nM

Q: How did the Kd turn out when B11 was run?
A: 0.032 nM

Q: Which Kd does the source give for B12 here?
A: 2 nM

Q: For B13, which Kd is on record?
A: 0.66 nM

Q: Which Kd does the source give for B14 here?
A: 0.96 nM

Q: For B15, which Kd is on record?
A: 0.093 nM

Q: B16 was tested. Which Kd did it give?
A: 0.033 nM

Biological target: T1, recombinant human IL-23 (hrIL-23), …
Assay: IL-23/IL-23R competition assay

Q: For B17, which IC50 is on record?
A: 0.98 nM

Q: How did the IC50 turn out when B18 was run?
A: 0.1 nM

Q: B19 was tested. Which IC50 did it give?
A: 0.13 nM

Q: Which IC50 does the source give for B20 here?
A: 0.1 nM

Q: B21 was tested. Which IC50 did it give?
A: 0.89 nM

Q: How did the IC50 turn out when B22 was run?
A: 0.58 nM

Q: For B23, which IC50 is on record?
A: 0.79 nM

Q: How did the IC50 turn out when B24 was run?
A: 0.52 nM

Q: For B25, which IC50 is on record?
A: 1 nM

Q: For B26, which IC50 is on record?
A: 1.25 nM

Q: How did the IC50 turn out when B27 was run?
A: 1.34 nM

Q: Which IC50 does the source give for B28 here?
A: 0.32 nM

Biological target: T1, recombinant human IL-23 (hrIL-23), …
Assay: SET
Remark: another data set of the same source

Q: Which Kd does the source give for B17 here?
A: 0.027 nM

Q: Which Kd does the source give for B18 here?
A: 0.027 nM

Q: For B19, which Kd is on record?
A: 0.036 nM

Q: With B20 as the binder, how does the Kd read?
A: 0.02 nM

Q: Which Kd does the source give for B21 here?
A: 0.023 nM

Q: Which Kd does the source give for B22 here?
A: 0.01 nM

Q: B23 was tested. Which Kd did it give?
A: 0.029 nM

Q: B24 was tested. Which Kd did it give?
A: 0.065 nM

Q: For B25, which Kd is on record?
A: 0.142 nM

Q: Which Kd does the source give for B26 here?
A: 0.058 nM

Q: B27 was tested. Which Kd did it give?
A: 0.098 nM

Q: B28 was tested. Which Kd did it give?
A: 0.069 nM

Biological target: T1, recombinant human IL-23 (hrIL-23), …
Assay: Biacore, Fab capture

Q: For B1, which Kd is on record?
A: 140 nM

Biological target: T1, recombinant human IL-23 (hrIL-23), …
Assay: IL-23/IL-23R competition assay
Remark: another data set of the same source

Q: For B6, which IC50 is on record?
A: 0.07 nM

Q: How did the IC50 turn out when B7 was run?
A: 0.05 nM

Q: For B8, which IC50 is on record?
A: 0.05 nM

Q: Which IC50 does the source give for B9 here?
A: 0.08 nM

Q: How did the IC50 turn out when B10 was run?
A: 0.4 nM

Q: How did the IC50 turn out when B11 was run?
A: 0.32 nM

Q: How did the IC50 turn out when B12 was run?
A: 0.14 nM

Q: For B13, which IC50 is on record?
A: 0.15 nM

Q: For B14, which IC50 is on record?
A: 0.2 nM

Q: With B15 as the binder, how does the IC50 read?
A: 0.69 nM

Q: Which IC50 does the source give for B16 here?
A: 0.11 nM
